# ± gives the uncertainty stated by the source.
# Assay: self-splicing fitness, log relative to wild type (ln ratio); higher = more splicing; Tetrahymena group I intron in knt gene, E. coli kanamycin selection, DiMSum; sequences stand for … in CUCUCU…GGAGGGAAAAGUUAUCAGGCAUGCACCUGGUAGCUAGUCUUUAAACCAAUAGAUUGCAUCGGUUUAAAAGGCAAGACCGUCAAAUUGCGGGAAAGGGGUCAACAGCCGUUCAGUACCAAGUCUCAGGGGAAACUUUGAGAUGGCCUUGCAAAGGGUAUGGUAAUAAGCUGACGGACAUGGUCCUAACCACGCAGCCAAGUCCUAAGUCAACAGAUCUUCUGUUGAUAUGGAUGCAGUUCACAGACUAAAUGUCGGUCGGGGAAGAUGUAUUCUUCUCAUAAGAUAUAGUCGGACCUCUCCUUAAUGGGAGCUAGCGGAUGAAGUGAUGCAACACUGGAGCCGCUGGGAACUAAUUUGUAUGCGAAAGUAUAUUGAUUAGUUUUGGAGUACUCGUGGUCG
# Method in brief: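 Library with all eight P1ex-region intron nucleotides randomised, intron inside the knt kanamycin-resistance gene on pET-22b(+), in E. coli BL21(DE3). Cells grew overnight at 37°C or 30°C on LB agar with or without 25 μg/mL kanamycin (plus 100 μg/mL carbenicillin, 50 μM IPTG, 0.2% rhamnose), in six replicate transformations. Pooled colonies were amplicon-sequenced on Illumina HiSeq 2500. DiMSum fitness is the error-weighted combination of wild-type-normalised replicate fold changes, kanamycin versus none.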
Sequence,self-splicing fitness (ln) (30 °C),self-splicing fitness (ln) (37 °C)
GGCGAGCAAUAUUACGACUG,-0.978 ± 0.24,-0.589 ± 0.29
GGCGAGCAAUAUUACGAGCG,-0.88 ± 0.14,-0.433 ± 0.17
GGCGAGCAAUAUUACGAUCG,-2.53 ± 0.21,-0.978 ± 0.21
GGCGAGCAAUAUUACGCGCA,-0.241 ± 0.17,0.253 ± 0.22
GGCGAGCAAUAUUACGCGUG,-1.15 ± 0.19,-0.666 ± 0.2
GGCGAGCAAUAUUACGCUGA,-1.82 ± 0.2,-2.12 ± 0.18
GGCGAGCAAUAUUACGGAGA,,-1.69 ± 0.39
GGCGAGCAAUAUUACGGGAC,-2.22 ± 0.2,-1.1 ± 0.27
GGCGAGCAAUAUUACGGGAU,,-2.21 ± 0.47
GGCGAGCAAUAUUACGUGAA,-2.49 ± 0.12,-0.0823 ± 0.13
GGCGAGCAAUAUUACGUGCG,-1.65 ± 0.11,-0.955 ± 0.1
GGCGAGCAAUAUUACGUUUA,-1.4 ± 0.087,-0.372 ± 0.11
GGCUAGCAAUAUUACGACCC,-1.79 ± 0.36,-0.966 ± 0.37
GGCUAGCAAUAUUACGACUC,0.93 ± 0.14,0.604 ± 0.26
GGCUAGCAAUAUUACGACUG,-1.54 ± 0.16,-0.524 ± 0.22
GGCUAGCAAUAUUACGAUUA,-0.803 ± 0.085,-0.572 ± 0.079
GGCUAGCAAUAUUACGCACC,-1.61 ± 0.24,-1.78 ± 0.26
GGCUAGCAAUAUUACGCAUA,0.253 ± 0.13,0.0704 ± 0.15
GGCUAGCAAUAUUACGCCAU,-2.23 ± 0.22,
GGCUAGCAAUAUUACGCGGU,-2.92 ± 0.38,-3.63 ± 0.24
GGCUAGCAAUAUUACGCUCG,-2.15 ± 0.24,-0.647 ± 0.19
GGCUAGCAAUAUUACGGAGU,-2.86 ± 0.1,-2.02 ± 0.13
GGCUAGCAAUAUUACGGCAU,-0.0766 ± 0.11,0.833 ± 0.13
GGCUAGCAAUAUUACGGCCU,-3.3 ± 0.35,
GGCUAGCAAUAUUACGGUAA,-0.655 ± 0.15,-0.0661 ± 0.14

Sequence,self-splicing fitness (ln) (30 °C),self-splicing fitness (ln) (37 °C)
GGCUAGCAAUAUUACGGUUU,0.173 ± 0.078,0.305 ± 0.09
GGCUAGCAAUAUUACGUCAA,-1.34 ± 0.11,-0.747 ± 0.12
GGCUAGCAAUAUUACGUCCA,-1.3 ± 0.18,-1.05 ± 0.2
GGCUAGCAAUAUUACGUCCG,-2.88 ± 0.3,-0.381 ± 0.17
GGCUAGCAAUAUUACGUUUC,-0.818 ± 0.11,-0.182 ± 0.12
GGGAAGCAAUAUUACGAAUA,,-1 ± 0.2
GGGAAGCAAUAUUACGACUU,0.323 ± 0.11,-0.202 ± 0.15
GGGAAGCAAUAUUACGAGAC,-1.98 ± 0.26,-2.1 ± 0.34
GGGAAGCAAUAUUACGAGCA,-2.18 ± 0.32,-0.522 ± 0.18
GGGAAGCAAUAUUACGAUCG,0.00926 ± 0.13,-0.00218 ± 0.13
GGGAAGCAAUAUUACGAUUU,-0.13 ± 0.1,-0.16 ± 0.12
GGGAAGCAAUAUUACGCGUG,-1.02 ± 0.076,-0.978 ± 0.096
GGGAAGCAAUAUUACGGACA,-0.34 ± 0.087,-0.0303 ± 0.13
GGGAAGCAAUAUUACGGGGC,-2.85 ± 0.34,
GGGAAGCAAUAUUACGGUAU,-2.78 ± 0.18,-1.63 ± 0.15
GGGAAGCAAUAUUACGGUUU,-1.89 ± 0.099,-1.07 ± 0.1
GGGAAGCAAUAUUACGUAUC,-1.43 ± 0.074,-1.03 ± 0.11
GGGAAGCAAUAUUACGUGAG,-0.751 ± 0.12,-1.46 ± 0.12
GGGAAGCAAUAUUACGUGUA,-1.96 ± 0.14,-0.669 ± 0.11
GGGCAGCAAUAUUACGAGAG,-4.06 ± 0.17,-2.82 ± 0.16
GGGCAGCAAUAUUACGAUCU,-0.541 ± 0.092,0.124 ± 0.12
GGGCAGCAAUAUUACGAUUG,-3.83 ± 0.4,-2.84 ± 0.27
GGGCAGCAAUAUUACGCCAA,-0.582 ± 0.19,-0.176 ± 0.24
GGGCAGCAAUAUUACGCCAC,-3.34 ± 0.37,-1.22 ± 0.38
GGGCAGCAAUAUUACGCCCA,-2.18 ± 0.48,-1.26 ± 0.32

Sequence,self-splicing fitness (ln) (30 °C),self-splicing fitness (ln) (37 °C)
GGGCAGCAAUAUUACGCGAC,-2.37 ± 0.13,-2.17 ± 0.21
GGGCAGCAAUAUUACGCGCA,-0.298 ± 0.13,-0.184 ± 0.13
GGGCAGCAAUAUUACGCUAA,-0.45 ± 0.087,0.361 ± 0.14
GGGCAGCAAUAUUACGGCUA,-0.49 ± 0.13,0.227 ± 0.14
GGGCAGCAAUAUUACGGCUU,-0.964 ± 0.15,-1.14 ± 0.16
GGGCAGCAAUAUUACGGGAG,-3.27 ± 0.22,-2.21 ± 0.2
GGGCAGCAAUAUUACGGGAU,-4.22 ± 0.42,-1.2 ± 0.17
GGGCAGCAAUAUUACGGGUU,-1.58 ± 0.12,-0.384 ± 0.12
GGGCAGCAAUAUUACGUAAC,-1.94 ± 0.18,-0.668 ± 0.2
GGGCAGCAAUAUUACGUCCG,-0.61 ± 0.091,-0.058 ± 0.14
GGGCAGCAAUAUUACGUCGC,-1.69 ± 0.1,-1.54 ± 0.14
GGGCAGCAAUAUUACGUCGG,-0.72 ± 0.12,0.392 ± 0.15
GGGCAGCAAUAUUACGUGAU,-1.61 ± 0.11,0.0478 ± 0.11
GGGCAGCAAUAUUACGUUCC,-2.68 ± 0.23,-2.58 ± 0.37
GGGCAGCAAUAUUACGUUCG,-0.761 ± 0.088,-0.431 ± 0.11
GGGGAGCAAUAUUACGACGA,-2.56 ± 0.4,-1.34 ± 0.28
GGGGAGCAAUAUUACGAGUA,-2.89 ± 0.3,-2.98 ± 0.43
GGGGAGCAAUAUUACGAGUU,-3.08 ± 0.45,
GGGGAGCAAUAUUACGCGCG,-1.83 ± 0.15,-0.952 ± 0.17
GGGGAGCAAUAUUACGCGGC,,-1.24 ± 0.49
GGGGAGCAAUAUUACGCGGG,-2.7 ± 0.31,-1.72 ± 0.39
GGGGAGCAAUAUUACGCGUC,-3.26 ± 0.43,-1.47 ± 0.23
GGGGAGCAAUAUUACGCUCU,,-2.19 ± 0.49
GGGGAGCAAUAUUACGCUGG,-2.98 ± 0.47,-0.764 ± 0.47
GGGGAGCAAUAUUACGGCAU,-1.9 ± 0.13,-1.53 ± 0.15

Sequence,self-splicing fitness (ln) (30 °C),self-splicing fitness (ln) (37 °C)
GGGGAGCAAUAUUACGGCGG,,-0.394 ± 0.41
GGGGAGCAAUAUUACGGGAU,-3.44 ± 0.32,-1.51 ± 0.22
GGGGAGCAAUAUUACGUACG,-1.76 ± 0.16,-0.525 ± 0.18
GGGGAGCAAUAUUACGUAGG,-2.68 ± 0.2,-1.85 ± 0.21
GGGGAGCAAUAUUACGUAUU,,-3.33 ± 0.42
GGGGAGCAAUAUUACGUGAA,-2.71 ± 0.085,-1.81 ± 0.12
GGGUAGCAAUAUUACGACGC,-1.08 ± 0.14,0.108 ± 0.25
GGGUAGCAAUAUUACGACGU,-0.726 ± 0.12,-0.0177 ± 0.14
GGGUAGCAAUAUUACGCGAG,-1.85 ± 0.32,-0.555 ± 0.18
GGGUAGCAAUAUUACGCUCA,-0.291 ± 0.17,-0.622 ± 0.26
GGGUAGCAAUAUUACGCUCG,-0.269 ± 0.13,-0.258 ± 0.16
GGGUAGCAAUAUUACGGCCA,-0.214 ± 0.16,-0.498 ± 0.24
GGGUAGCAAUAUUACGGGGA,-3.52 ± 0.35,-2.31 ± 0.38
GGGUAGCAAUAUUACGGGGU,-3.33 ± 0.32,-3.06 ± 0.47
GGGUAGCAAUAUUACGGUGC,-1.9 ± 0.085,-1.34 ± 0.092
GGGUAGCAAUAUUACGUAAU,-0.889 ± 0.085,-0.379 ± 0.11
GGGUAGCAAUAUUACGUACU,-2.25 ± 0.4,-1.43 ± 0.38
GGGUAGCAAUAUUACGUGCG,-0.234 ± 0.097,-0.0569 ± 0.12
GGGUAGCAAUAUUACGUGCU,-0.698 ± 0.15,-0.399 ± 0.19
GGGUAGCAAUAUUACGUGGC,,-2.64 ± 0.33
GGGUAGCAAUAUUACGUUUA,-0.585 ± 0.12,-0.381 ± 0.1
GGUAAGCAAUAUUACGAAUG,-2.23 ± 0.29,-2.81 ± 0.36
GGUAAGCAAUAUUACGAGUC,-2.59 ± 0.16,-0.851 ± 0.13
GGUAAGCAAUAUUACGCAAC,,-1.35 ± 0.38

# From the supplement of paper PMC7877785
